Measured values taken from patent US20210230570.
Numbering of substitutions follows the chain as printed. Names may count otherwise.

B1: FIXa-R318Y/R338E/T343R/E410N (protein)
chain 1: YNSGKLEEFVQGNLERECMEEKCSFEEAREVFENTERTTEFWKQYVDGDQCESNPCLNGGSCKDDINSYECWCPFGFEGKNCELDVTCNIKNGRCEQFCKNSADNKVVCSCTEGYRLAENQKSCEPAVPFPCGRVSVSQTSKLTR
chain 2: VVGGEDAKPGQFPWQVVLNGKVDAFCGGSIVNEKWIVTAAHCVETGVKITVVAGEHNIEETEHTEQKRNVIRIIPHHNYNAAINKYNHDIALLELDEPLVLNSYVTPICIADKEYTNIFLKFGSGYVSGWGRVFHKGYSALVLQYLRVPLVDRATCLESTKFRIYNNMFCAGFHEGGRDSCQGDSGGPHVTEVEGTSFLTGIISWGEECAMKGKYGIYTKVSRYVNWIKNKTKLT
B2: FIXa-Y155F/R318Y/R338E/N346D/R403E/E410N (protein)
chain 1: B1 chain 1
chain 2: B1 chain 2 with R163T, N166D, R223E
B3: FIXa Y155F/K247N/N249S/R318Y/R338E/R403E/E410N (protein)
chain 1: B1 chain 1
chain 2: B1 chain 2 with K67N, N69S, R163T, R223E
B4: FIXa-R318Y/R338E/T343R/N346D/R403E/E410N (protein)
chain 1: B1 chain 1
chain 2: B1 chain 2 with N166D, R223E
B5: FIXa-R318Y/R338E/Y345A/R403E/E410N (protein)
chain 1: B1 chain 1
chain 2: B1 chain 2 with R163T, Y165A, R223E
B6: FIXa-R318Y/R338E/T343R/N346Y/R403E/E410N (protein)
chain 1: B1 chain 1
chain 2: B1 chain 2 with N166Y, R223E
B7: FIXa R318Y/R338E/N346D/R403E/E410N (protein)
chain 1: B1 chain 1
chain 2: B1 chain 2 with R163T, N166D, R223E
B8: FIXa-R318Y/R338E/N346Y/R403E/E410N (protein)
chain 1: B1 chain 1
chain 2: B1 chain 2 with R163T, N166Y, R223E
B9: FIXa Y155F/K228N/K247N/N249S (protein)
chain 1: B1 chain 1
chain 2: B1 chain 2 with K48N, K67N, N69S, Y138R, E158R, R163T, N230E
B10: FIXa D104N/K106S/K247N/N249S/R318Y/R338E/R403E/E410N (protein)
chain 1: B1 chain 1 with D104N, K106S
chain 2: B1 chain 2 with K67N, N69S, R163T, R223E
B11: FIXa R318Y/R338E/R403E/E410S (protein)
chain 1: B1 chain 1
chain 2: B1 chain 2 with R163T, R223E, N230S
B12: FIXa D104N/K106S/I251S/R318Y/R338E/E410N (protein)
chain 1: B1 chain 1 with D104N, K106S
chain 2: B1 chain 2 with I71S, R163T
B13: FIXa K247N/N249S/R318Y/R338E/E410N (protein)
chain 1: B1 chain 1
chain 2: B1 chain 2 with K67N, N69S, R163T
B14: FIXa Y155F/N260S/R318Y/R338E/R403E/E410N (protein)
chain 1: B1 chain 1
chain 2: B1 chain 2 with N80S, R163T, R223E
B15: FIXa-Y155F/K247N/N249S/N260S (protein)
chain 1: B1 chain 1
chain 2: B1 chain 2 with K67N, N69S, N80S, Y138R, E158R, R163T, N230E
B16: FIXa Y155F/K247N/N249S/R318Y/R338E/E410N (protein)
chain 1: B1 chain 1
chain 2: B1 chain 2 with K67N, N69S, R163T
B17: FIXa N260S/R318Y/R338E/R403E/E410N (protein)
chain 1: B1 chain 1
chain 2: B1 chain 2 with N80S, R163T, R223E
B18: FIXa R318Y/R338E/R403E/E410N/T412A (protein)
chain 1: B1 chain 1
chain 2: B1 chain 2 with R163T, R223E, T232A
B19: FIXa R318Y/R338E/E410S (protein)
chain 1: B1 chain 1
chain 2: B1 chain 2 with R163T, N230S
B20: FIXa-D104N/K106S/K247N/N249S/N260S (protein)
chain 1: B1 chain 1 with D104N, K106S
chain 2: B1 chain 2 with K67N, N69S, N80S, Y138R, E158R, R163T, N230E
B21: FIXa A103N/N105S/K247N/N249S/R318Y/R338E/R403E/E410N (protein)
chain 1: B1 chain 1 with A103N, N105S
chain 2: B1 chain 2 with K67N, N69S, R163T, R223E
B22: FIXa K228N/K247N/N249S (protein)
chain 1: B1 chain 1
chain 2: B1 chain 2 with K48N, K67N, N69S, Y138R, E158R, R163T, N230E
B23: FIXa K228N/K247N/N249S/R318Y/R338E/R403E/E410N (protein)
chain 1: B1 chain 1
chain 2: B1 chain 2 with K48N, K67N, N69S, R163T, R223E
B24: FIXa D104N/K106S/K228N/K247N/N249S (protein)
chain 1: B1 chain 1 with D104N, K106S
chain 2: B1 chain 2 with K48N, K67N, N69S, Y138R, E158R, R163T, N230E
B25: FIXa-D104N/K106S/Y155F/K247N/N249S/N260S (protein)
chain 1: B1 chain 1 with D104N, K106S
chain 2: B1 chain 2 with K67N, N69S, N80S, Y138R, E158R, R163T, N230E
B26: FIXa R318Y/R338E/T412A (protein)
chain 1: B1 chain 1
chain 2: B1 chain 2 with R163T, N230E, T232A
B27: FIXa R318Y/R338E/E410N/T412V (protein)
chain 1: B1 chain 1
chain 2: B1 chain 2 with R163T, T232V
B28: FIXa I251S/R318Y/R338E/E410N (protein)
chain 1: B1 chain 1
chain 2: B1 chain 2 with I71S, R163T
B29: FIXa R318Y/R338E/R403E/T412A (protein)
chain 1: B1 chain 1
chain 2: B1 chain 2 with R163T, R223E, N230E, T232A
B30: FIXa D104N/K106S/N260S/R318Y/R338E/R403E/E410N (protein)
chain 1: B1 chain 1 with D104N, K106S
chain 2: B1 chain 2 with N80S, R163T, R223E
B31: FIXa K247N/N249S/R318Y/R338E/R403E/E410N (protein)
chain 1: B1 chain 1
chain 2: B1 chain 2 with K67N, N69S, R163T, R223E
B32: FIXa R318Y/R338E/R403E/E410N/T412V (protein)
chain 1: B1 chain 1
chain 2: B1 chain 2 with R163T, R223E, T232V
B33: FIXa-R318Y/R338E/Y345A/N346D/R403E/E410N (protein)
chain 1: B1 chain 1
chain 2: B1 chain 2 with R163T, Y165A, N166D, R223E
B34: FIXa D104N/K106S/Y155F/K228N/K247N/N249S (protein)
chain 1: B1 chain 1 with D104N, K106S
chain 2: B1 chain 2 with K48N, K67N, N69S, Y138R, E158R, R163T, N230E
B35: FIXa-K247N/N249S/N260S/R318Y/R338E/R403E/E410N (protein)
chain 1: B1 chain 1
chain 2: B1 chain 2 with K67N, N69S, N80S, R163T, R223E
B36: FIXa-K247N/N249S/N260S (protein)
chain 1: B1 chain 1
chain 2: B1 chain 2 with K67N, N69S, N80S, Y138R, E158R, R163T, N230E
B37: FIXa Y155F/I251S/R318Y/R338E/R403E/E410N (protein)
chain 1: B1 chain 1
chain 2: B1 chain 2 with I71S, R163T, R223E

Columns and labels:
[1] = target: Factor X (FX), substrate zymogen, P00742
Chain of Factor X (FX), substrate zymogen, P00742 (P00742 whole entry, looked up): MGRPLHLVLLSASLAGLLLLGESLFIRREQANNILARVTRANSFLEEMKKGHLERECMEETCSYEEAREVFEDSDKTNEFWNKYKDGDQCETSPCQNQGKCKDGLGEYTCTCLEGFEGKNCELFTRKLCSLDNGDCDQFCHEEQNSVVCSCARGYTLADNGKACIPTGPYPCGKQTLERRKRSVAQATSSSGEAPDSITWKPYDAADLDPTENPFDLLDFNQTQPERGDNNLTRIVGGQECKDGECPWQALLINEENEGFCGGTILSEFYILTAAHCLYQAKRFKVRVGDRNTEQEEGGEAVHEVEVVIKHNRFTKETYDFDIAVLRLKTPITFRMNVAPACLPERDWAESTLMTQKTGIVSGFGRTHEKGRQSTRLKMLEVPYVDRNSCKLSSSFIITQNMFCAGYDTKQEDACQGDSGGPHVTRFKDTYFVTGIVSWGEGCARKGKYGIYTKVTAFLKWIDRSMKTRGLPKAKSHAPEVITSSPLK

[2] = target: Antithrombin III (plasma purified human AT-III, Molecular Innovations), as AT-III/UFH complex
[3] = target: plasma purified human AT-III (antithrombin III), in complex with full-length unfractionated heparin (AT-III/UFH)
[4] = target: plasma purified human antithrombin III (AT-III) in complex with full-length unfractionated heparin (UFH)

Chain of Factor X (FX), P00742 (P00742 whole entry, looked up): as above

Protein | kcat of FX activation by FIXa in the Xase complex (FVIIIa, PC/PS vesicles, Ca2+) (Factor X (FX), P00742) [s⁻¹] | K0.5-mut/K0.5-wt [4] [fold] | other results
B1 | 4.9 | – | catalytic activity (kcat/KM) for activation of FX in the Xase complex (FVIIIa, PC/PS vesicles, Ca2+), fluorogenic FXa read-out [1]: displayed some of the greatest increases in catalytic activity; KM (Factor X (FX), P00742): 0.0164 µM
B2 | 6.4 | – | KM (nM); Catalytic activity of FIXa variants (KM) (Factor X (FX), P00742): 100 nM; K0.5-mut/K0.5-wt (against Catalyst Biosciences WT FIXa) [2]: > 517; K0.5-mut/K0.5-wt (against Catalyst Biosciences WT FIXa) [3]: > 517
B3 | – | > 517 | –
B4 | 5.4 | – | KM (Factor X (FX), P00742): 0.067 µM; K0.5-mut/K0.5-wt (against Catalyst Biosciences WT FIXa) [2]: > 517
B5 | 1.4 | – | KM (Factor X (FX), P00742): 0.0188 µM; K0.5-mut/K0.5-wt (against Catalyst Biosciences WT FIXa) [2]: > 517
B6 | 4.6 | – | KM (Factor X (FX), P00742): 0.0158 µM; K0.5-mut/K0.5-wt (against Catalyst Biosciences WT FIXa) [2]: > 517
B7 | – | > 517 | –
B8 | 3.4 | – | KM (Factor X (FX), P00742): 0.0281 µM; K0.5-mut/K0.5-wt (against Catalyst Biosciences WT FIXa) [2]: > 517
B9 | – | 1.4 | –
B10 | – | > 517 | –
B11 | – | > 517 | –
B12 | – | 464 | –
B13 | – | 78.3 | –
B14 | – | 501 | –
B15 | 1.8 | – | KM (nM); Catalytic activity of FIXa variants (KM) (Factor X (FX), P00742): 96.5 nM; K0.5-mut/K0.5-wt (against Catalyst Biosciences WT FIXa) [2]: 7.9
B16 | – | 200 | –
B17 | – | > 517 | –
B18 | – | > 517 | KM (Factor X (FX), P00742): 0.0335 µM
B19 | – | 279 | –

Protein | kcat of FX activation by FIXa in the Xase complex (FVIIIa, PC/PS vesicles, Ca2+) (Factor X (FX), P00742) [s⁻¹] | K0.5-mut/K0.5-wt [4] [fold] | other results
B20 | 0.6 | – | KM (nM); Catalytic activity of FIXa variants (KM) (Factor X (FX), P00742): 61.2 nM; K0.5-mut/K0.5-wt (against Catalyst Biosciences WT FIXa) [2]: 65.3
B21 | – | 129 | –
B22 | – | 4.4 | –
B23 | – | > 517 | KM (Factor X (FX), P00742): 0.0558 µM
B24 | – | 2.1 | –
B25 | 0.5 | – | KM (nM); Catalytic activity of FIXa variants (KM) (Factor X (FX), P00742): 68.5 nM; K0.5-mut/K0.5-wt (against Catalyst Biosciences WT FIXa) [2]: 35.8
B26 | – | 396 | –
B27 | – | 252 | –
B28 | – | 303 | –
B29 | – | > 517 | –
B30 | – | > 517 | –
B31 | – | 418 | –
B32 | – | > 517 | KM (Factor X (FX), P00742): 0.0443 µM
B33 | 1.2 | – | KM (Factor X (FX), P00742): 0.0565 µM; K0.5-mut/K0.5-wt (against Catalyst Biosciences WT FIXa) [2]: > 517
B34 | – | 1.6 | –
B35 | 3.4 | – | KM (Factor X (FX), P00742): 0.0474 µM; KM (nM); Catalytic activity of FIXa variants (KM) (Factor X (FX), P00742): 62.2 nM; kcat/KM (Factor X (FX), P00742): 9.7e+07 M⁻¹ s⁻¹; K0.5-mut/K0.5-wt (against Catalyst Biosciences WT FIXa) [2]: 288
B36 | 3.3 | – | KM (nM); Catalytic activity of FIXa variants (KM) (Factor X (FX), P00742): 114 nM; K0.5-mut/K0.5-wt (against Catalyst Biosciences WT FIXa) [2]: 8.1
B37 | – | > 517 | –
